This is an account of results in paper PMC2925294.

Like-named read-outs stand apart in the source and are kept apart here.

What all share (test): cryo-EM structure
The target in test [1] is epsilon15 bacteriophage capsid stapling protein gp10 (epsilon15 bacteriophage).
For test [2] the target is unchanged. The source holds these as a separate data set.
Test [3] addresses epsilon15 bacteriophage tail hub (epsilon15 bacteriophage).
In test [4] the target is epsilon15 bacteriophage tail-spike (gp20) (epsilon15 bacteriophage).

Usually stoichiometry N stands for a count of units in the complex or per binding partner. As for “epsilon15 bacteriophage capsid stapling protein gp10 (natural protein)”, the stoichiometry N in test [1] and in test [2] was 2 in each case.
Take “epsilon15 bacteriophage tail hub (natural protein)”: the stoichiometry N in test [3] was 6.
For the substance “epsilon15 bacteriophage tail-spike (gp20) (natural protein)”, the stoichiometry N in test [4] came to 3.
